Test [1] has as its target T1, wild-type His6-tagged H-Ras (1-166) pre-loaded with GDP, P01112. Kind of test: fluorescence polarization, fluorescein-labelled CHD (15 nM), His6-H-Ras-GDP titrated.
Test [2] deals with T1, wild-type His6-tagged H-Ras (1-166) …. Kind of test: direct fluorescence polarization; fluorescein-labelled CHD titrated with GDP-loaded WT H-Ras.
The target is the same in test [3]. Kind of test: direct fluorescence polarization (FP); fluorescein-labelled CHD titrated with GDP-loaded His6-H-Ras.
In test [4] the target is G12C mutant His6-tagged H-Ras (1-166) pre-loaded with GDP, P01112. Briefly: direct fluorescence polarization (FP); fluorescein-labelled CHD titrated with GDP-loaded His6-H-Ras G12C.
For test [5], the target named is G12D mutant His6-tagged H-Ras (1-166) pre-loaded with GDP, P01112. Briefly: direct fluorescence polarization (FP); fluorescein-labelled CHD titrated with GDP-loaded His6-H-Ras G12D.
The target of test [6] is T2, G12V mutant His6-tagged H-Ras (1-166) pre-loaded with GDP, P01112. Briefly: direct fluorescence polarization (FP); fluorescein-labelled CHD titrated with GDP-loaded His6-H-Ras G12V.
Test [7] deals with K-Ras (endogenous, H358 cells) (human), P01116. Kind of test: cell-based or functional assay.
For test [8], the target named is T3, fluorescently-labeled wild-type H-Ras-GDP (MST), P01112. Kind of test: microscale thermophoresis, dye-labelled H-Ras-GDP (5-10 nM), CHD titrated.
For test [9], the target named is T3, fluorescently-labeled wild-type …. Briefly: microscale thermophoresis; AFDye 647-labelled wild-type H-Ras-GDP with serial dilutions of the CHD.
For test [10], the target named is T2, G12V mutant His6-tagged H-Ras (1-166) …. Kind of test: microscale thermophoresis (column MST); AFDye 647-labelled G12V H-Ras-GDP with serial dilutions of the unlabelled CHD.
For test [11], the target named is KRAS (Homo sapiens), P01116. Briefly: photoaffinity crosslinking in H358 cells, TMT MS proteomics.
In test [12] the target is KRAS (Homo sapiens), P01116. Kind of test: photoaffinity crosslinking in H358 cells, TMT MS proteomics; vs control probe CP-266.

Positions of bridges follow the written chain, without caps; N, C: chain ends. Non-standard residues stand in square brackets, D forms with d. Chains are numbered I, II in the order given. No end group written: not given here. *: point of attachment. dibenzylether crosslinker = scaffold alkylating both cysteine thiols (drawn in Scheme 1 and; FITC = O=C1OC2(c3ccc(O)cc3Oc3cc(O)ccc32)c2ccc(NC(=S)*)cc21; hArg = N=C(N)NCCCC[C@H](N)C(=O)O; βAla = NCCC(=O)O Some results are limits rather than exact numbers.

B1: FITC-CHD^Sos-1 (designed binder)
chain 1: Ac-FIGRLCTEILKLREGN-NH2
chain 2: {FITC}-[βAla]LAWRLRELERELARLC
modifications: linker I:6-II:17 via dibenzylether crosslinker; not fully specified (C-terminus)
For B1, the Kd in test [1] was found to be 32 µM; in test [2], 32.2 µM.

B2: FITC-CHD^Sos-5 (designed binder)
chain 1: Ac-WIGRLCTEI[hArg]RLRNGN-NH2
chain 2: {FITC}-[βAla]LAWRLRELERELARLC-NH2
modifications: linker I:6-II:17 via dibenzylether crosslinker
On to B2, for which the Kd in test [1] was 2 µM; in [3], 1.9 µM; in test [4] it was 16.1 µM; in [5], 17.9 µM; in test [6] it was 13.4 µM.

B3: CHD^Sos-5 (designed binder)
chain 1: WIGRLCTEI[hArg]RLRNGN
chain 2: Ac-LAWRLRELERELARLC-NH2
modifications: linker I:6-II:16 via dibenzylether crosslinker; not fully specified (N-terminus, C-terminus)
In the case of B3, the ERK activation levels (ERK phosphorylation, Western blot, H358 cells) in [7] is under 1 µM. Moreover, the Kd in test [8] stood at 0.3 µM; in test [10], 2.7 µM. The EC50 (read off the curve) in test [9] is 0.2 µM.

B4: DZ2-CHD^Sos-5 (designed binder)
chain 1: WIGRLCTEIKRLRNGN
chain 2: LAWRLRELERELARLC
modifications: not checked
For the molecule B4, the Average Abundance in test [11] was 825. For the same molecule, in test [12], the Fold was 6.63 fold and the log2(fold) worked out at 2.73.

Values taken from patent US20240124539A1, “CROSSLINKED HELIX DIMER MIMICS OF SOS AND METHODS OF USING SAME” (NEW YORK UNIVERSITY, priority 2020, published 2024).
